Measurements from PMC3424247, “The Crystal Structures of the Tryparedoxin-Tryparedoxin Peroxidase Couple Unveil the Structural Determinants of Leishmania Detoxification Pathway” (PLoS Neglected Tropical Diseases, 2012).

B1: cytosolic tryparedoxin from Leishmania major (enzyme, UniProt E9ADX4 1-145, looked up)
chain: MSGVAKHLGEALKLRKQADTADMDSLSGKTVFFYFSASWCPPCRGFTPQLVEFYEKHHDSKNFEIILASWDEEEDDFNAYYAKMPWLSIPFANRNIVEALTKKYSVESIPTLIGLNADTGDTVTTRARHALTQDPMGEQFPWRDE
notes: cytosolic tryparedoxin (TXN1) of Leishmania major, gene amplified from L. major DNA with primers that hold the start (CATATG) and the stop codon; residues 2-145 seen in the crystal; Cloned between NdeI and HindIII of pET28b; the tag is probably N-terminal and thrombin probably leaves a few vector residues (surmised); Monomer-dimer equilibrium in solution, mostly monomer; also called LmTXN; TXN; …

Columns and labels:
[1] = biological target: cytosolic tryparedoxin from Leishmania major (Leishmania major) (UniProt E9ADX4); assay: SPR; as a6 but HBS-P buffer + 30 mM H2O2 (oxidizing conditions); LmTXNPx 80 nM-10 µM
[2] = biological target: tryparedoxin-dependent peroxidase from Leishmania major (Leishmania major); assay: native gel or EMSA; Novex 4-12% Tris-Glycine non-denaturing gels; LmTXNPx 0.5 mg/mL with H2O2 (300, 30, 3 mM) or DTT (50, 5, 1 mM)
[3] = biological target: cytosolic tryparedoxin from Leishmania major (Leishmania major) (UniProt E9ADX4); assay: SPR; as a6 but HBS-P buffer + 1 mM dithiotreitol (reducing conditions); LmTXNPx 40 nM-5 µM; for the dissociation rate DTT was added after 2080 s to the complex formed in HBS-P
[4] = biological target: tryparedoxin-dependent peroxidase from Leishmania major (Leishmania major); assay: crystal structure; LmTXNPx about 12 mg/mL with 50 mM DTT, 22-26% PEG3350, 100 mM Bis-tris propane pH 8.0, 0.2 M KSCN, 293 K; five molecules per asymmetric unit, decamer from two adjacent asymmetric units; 3.0 Å
[5] = biological target: cytosolic tryparedoxin from Leishmania major (Leishmania major) (UniProt E9ADX4); assay: SPR; BIACORE X, CM5 chip; LmTXN immobilised by amine coupling (about 1000 RU), LmTXNPx flowed over (40 nM-4.0 µM); 298 K; HBS-P buffer (10 mM HEPES pH 7.4, 0.15 M NaCl, 0.005% P-20); 30 µL/min; Scatchard analysis of Req
[6] = biological target: the molecule itself; assay: crystal structure; LmTXN about 8 mg/mL, hanging drop, 293 K, 20-24% PEG 3350, 100 mM Tris-HCl pH 8.5, 50 mM MgCl2; one molecule per asymmetric unit, dimer by crystallographic two-fold; 1.8 Å

Molecule	Kd [1] [µM]	koff [1] [s⁻¹]	stoichiometry N [2]	Kd [3] [µM]	koff [3] [s⁻¹]	stoichiometry N [4]	Kd [5] [nM]	koff [5] [s⁻¹]	stoichiometry N [6]
tryparedoxin-dependent peroxidase from Leishmania major (enzyme)	> 20	> 0.1	10	> 20	0.009	10	1100	5e-05	
B1									2
